{"source": "patent US20140234868A1", "about": "“USE FOR GLYCOLIPOPROTEIN GINTONIN, ISOLATED AND IDENTIFIED FROM GINSENG, AS A NATURAL MEDICAL-PLANT DERIVED LIGAND” (KONKUK UNIVERSITY INDUSTRIAL COOPERATION CORP., priority 2011, published 2014)", "molecules": {"B1": {"name": "gintonin: ginseng-derived glycolipoprotein; structural protein of ginseng major latex-like protein (MLP151) and ribonuclease-like storage proteins; crude gintonin used in tests (protein)", "chain 1": "MGLTGKLICQTGIKSDGDVFHELFGTRPHHVPNITPANIQGCDLHEGEFGKVGSVVIWNYSIDGNAMIAKEEIVAIDEEDKSVTFKVVEGHLFEEFKSIVFSVHVDTKGEDNLVTWSIDYEKLNESVKDPTSYLDFLLSVTRDIEAHHLPK", "chain 2": "RSDYPWAMFALRLQWPAGFCEVNNACDTKSLLNTFTIHGLYPYNAKGTPALYCDGTAFDVNSVSDFLAEMHLAWPSHETNTEDIQFWEHEWKKHGRCSEALLKQTDYFRTALAFRKAFDIVGLLNQEGIYPNNDLYRPKMIKEAIKKHLNAVPEIDFTKNENSEYVLTDINVCVNQQATRFVDCPTDDATDDYRLKFVRLPSKMKFADPRTNSII"}}, "biological_target": "T1, LPA6 receptor (Homo sapiens, UniProt P43657)", "T1 construct": "host or cells: B103 rat neuroblastoma cells", "T1 sequence (P43657 1-344)": "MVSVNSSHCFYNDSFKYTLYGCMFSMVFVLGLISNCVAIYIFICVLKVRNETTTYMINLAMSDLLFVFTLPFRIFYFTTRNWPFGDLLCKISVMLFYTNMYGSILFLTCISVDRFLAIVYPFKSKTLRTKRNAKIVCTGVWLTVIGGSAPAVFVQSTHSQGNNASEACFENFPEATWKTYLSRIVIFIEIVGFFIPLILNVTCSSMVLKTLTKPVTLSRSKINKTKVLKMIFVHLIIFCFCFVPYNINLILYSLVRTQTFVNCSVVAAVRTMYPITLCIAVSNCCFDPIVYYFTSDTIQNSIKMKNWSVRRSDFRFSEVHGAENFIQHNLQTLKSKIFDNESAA", "assay": "Intracellular free Ca2+ (Fura-2AM) in LPA6-expressing B103 cells", "format": "cell-based", "source_text": "LPA family receptors are endogenous to cells of most organs. B103 rat neuroblastoma cells, known as LPA receptor-null cells (Valentine et al., Biochim Biophys Acta 1780. 597-605) were transiently transfected with a plasmid (vector) carrying one of genes coding for LPA1(edg-2), LPA2(edg-4), LPA3(edg-7), LPA4, LPA5 and LPA6 receptors or a plasmid carrying none of them (empty vector). Two or three days after transfection, the cells are suspended, and made permeable. Then, the permeable cells are treated with Fura-2AM, a fluorescent dye binding to calcium, and then with gintonin, followed by spectrofluorephotometry to examine whether gintonin induces an increase in intracellular free Ca^2+ level. […]", "data": [{"molecule": "B1", "values": [{"measurement": "gintonin activity on intracellular calcium level", "result": "No gintonin activity was detected"}]}]}
